From US20090311283A1
Read-outs that look alike come from different tables or passages of the source.

How the values were obtained:
[1] = target: HLA-A*3101 (human); test: competitive inhibition of 125I-labelled probe peptide binding to purified HLA; relative to standard peptide
[2] = target: HLA-A*0301 (human); test: as above
[3] = target: HLA-A*3301 (human); test: as above
[4] = target: HLA-A*0301 (human); test: inhibition of binding of a 125I-labelled probe peptide to purified HLA-A*0301, gel filtration; relative to the standard peptide
[5] = target: HLA-A*3101 (Human); settings: remark: other sources report otherwise
[6] = target: HLA-A*0301 (human); test: competition with 125I-labelled probe peptide for purified HLA, gel filtration
[7] = target: HLA-A*1101 (human); test: as above
[8] = target: T1, HLA-DRB1*0701 (human); test: inhibition of 125I-labelled probe peptide binding to purified HLA-DR; gel filtration; settings: remark: other sources report otherwise
T1 chain 1: not shown
T1 chain 2: not shown

[9] = target: T2, HLA-DRB1*0401 (human); test: as above; settings: remark: other sources report otherwise
T2 chain 1: not shown
T2 chain 2: not shown

[10] = target: T3, HLA-DRB1*0101 (human); test: as above; settings: remark: other sources report otherwise
T3 chain 1: not shown
T3 chain 2: not shown

[11] = target: HLA-A*0301 (human); test: competition with 125I probe peptide on purified HLA-A*0301; relative to standard peptide 941.12
[12] = target: HLA-A*3301 (human)
[13] = target: HLA-A*1101 (human)
[14] = target: HLA-A*3101 (human); test: competition with 125I probe peptide on purified HLA-A*3101; relative to standard peptide 941.12
[15] = target: HLA-A*6801 (human); test: competition with 125I probe peptide on purified HLA-A*6801; relative to standard peptide 941.12
[16] = target: HLA-A*1101 (human); test: competitive inhibition of 125I-labelled probe peptide binding to purified HLA; relative to standard peptide
[17] = target: HLA-A*0301 (human); test: competition with 125I-labelled probe peptide for purified HLA-A*0301, gel filtration; relative binding against the standard peptide; settings: scale: ratio
[18] = remark: other sources report otherwise

GMDIDPYK (modifications not checked) [HBV NUC 29 peptide GMDIDPYK]
binding affinity ratio (IC50 of standard peptide / IC50 of test peptide) [1]: -0.0009
binding affinity ratio (IC50 of standard peptide / IC50 of test peptide) [2]: 0.0006
binding affinity ratio (IC50 of standard peptide / IC50 of test peptide) [3]: -0.0009

SAGPCALRF (modifications not checked) [HBV X 65 peptide …]
binding affinity ratio (IC50 of standard peptide / IC50 of test peptide) [4]: -0.0003

FVLGGCRHK (modifications not checked) [Peptide 1.0219 (HBV X 1550, …)]
IC50 [5]: 1500 nM

SSAGPCALRF (modifications not checked) [HBV X 64 peptide …]
binding affinity ratio (IC50 of standard peptide / IC50 of test peptide) [4]: -0.0003

HLNPNKTKR (modifications not checked) [HBV POL 569 peptide …]
binding affinity ratio (IC50 of standard peptide / IC50 of test peptide) [2]: 0.0025

YLVSFGVWIR (modifications not checked) [… (HBV NUC 118)]
binding affinity ratio (IC50 of standard peptide / IC50 of test peptide) [6]: 0.0005
binding affinity ratio (IC50 of standard peptide / IC50 of test peptide) [7]: 0.0002

HLSLRGLPVCAFSSA (modifications not checked) [… (HBV X 52, 15-mer)]
binding affinity ratio (IC50 of standard peptide / IC50 of test peptide) [8]: 0.013
binding affinity ratio (IC50 of standard peptide / IC50 of test peptide) [9]: 0.0028
binding affinity ratio (IC50 of standard peptide / IC50 of test peptide) [10]: 1.3

SALNPADDPSR (modifications not checked) [HBV POL 771 peptide …]
binding affinity ratio (IC50 standard peptide / IC50 test peptide) [11]: -0.0004
binding affinity ratio (IC50 standard peptide / IC50 test peptide) [12]: -0.0023
binding affinity ratio (IC50 standard peptide / IC50 test peptide) [13]: -0.0003
binding affinity ratio (IC50 standard peptide / IC50 test peptide) [14]: -0.0012
binding affinity ratio (IC50 standard peptide / IC50 test peptide) [15]: 0.0003
binding affinity ratio (IC50 of standard peptide / IC50 of test peptide) [4]: -0.0004

SAICSVVR (modifications not checked) [HBV POL 520 peptide SAICSVVR]
binding affinity ratio (IC50 standard peptide / IC50 test peptide) [11, 18]: -0.0002
binding affinity ratio (IC50 standard peptide / IC50 test peptide) [12, 18]: 0.0081
binding affinity ratio (IC50 standard peptide / IC50 test peptide) [13, 18]: 0.0071
binding affinity ratio (IC50 standard peptide / IC50 test peptide) [14, 18]: 0.028
binding affinity ratio (IC50 standard peptide / IC50 test peptide) [15, 18]: 0.069
binding affinity ratio (IC50 of standard peptide / IC50 of test peptide) [4, 18]: -0.0002

KAGILYKR (modifications not checked) [HBV POL 153 peptide KAGILYKR]
binding affinity ratio (IC50 of standard peptide / IC50 of test peptide) [1]: 0.0015
binding affinity ratio (IC50 of standard peptide / IC50 of test peptide) [3]: -0.0009
binding affinity ratio (IC50 of standard peptide / IC50 of test peptide) [16]: -0.0002

RTPSPRRR (modifications not checked) [HBV NUC 188 peptide RTPSPRRR]
binding affinity ratio (IC50 standard peptide / IC50 test peptide) [11]: -0.0002
binding affinity ratio (IC50 standard peptide / IC50 test peptide) [12]: 0.0014
binding affinity ratio (IC50 standard peptide / IC50 test peptide) [13]: -0.0002
binding affinity ratio (IC50 standard peptide / IC50 test peptide) [14]: 0.0033
binding affinity ratio (IC50 standard peptide / IC50 test peptide) [15]: 0.0002
binding affinity ratio (IC50 of standard peptide / IC50 of test peptide) [4]: -0.0002

TDNSVVLSRK (modifications not checked) [HBV POL 736 peptide …]
binding affinity ratio (relative to standard peptide) [17]: 0.0006

SVVLSRKY (modifications not checked) [HBV POL 739 peptide SVVLSRKY]
binding affinity ratio (relative to standard peptide) [17]: -0.0002

LTVNEKRR (modifications not checked) [HBV POL 99 peptide LTVNEKRR]
binding affinity ratio (IC50 of standard peptide / IC50 of test peptide) [1]: -0.0009
binding affinity ratio (IC50 of standard peptide / IC50 of test peptide) [2]: -0.0002
binding affinity ratio (IC50 of standard peptide / IC50 of test peptide) [3]: -0.0009
binding affinity ratio (IC50 of standard peptide / IC50 of test peptide) [16]: -0.0002
